Here are results for one molecule from US20230144876A1 (UNIVERSITY OF KITAKYUSHU, published 2023).

The assay deals with T1, MHC-1 (MHC class I molecules) on murine dendritic cell line DC2.4 cells (mouse, UniProt P01887 21-119; P01901 22-369).
T1 construct: whole, on cells; also called H-2Kb
T1 sequence (MHC heavy, looked up): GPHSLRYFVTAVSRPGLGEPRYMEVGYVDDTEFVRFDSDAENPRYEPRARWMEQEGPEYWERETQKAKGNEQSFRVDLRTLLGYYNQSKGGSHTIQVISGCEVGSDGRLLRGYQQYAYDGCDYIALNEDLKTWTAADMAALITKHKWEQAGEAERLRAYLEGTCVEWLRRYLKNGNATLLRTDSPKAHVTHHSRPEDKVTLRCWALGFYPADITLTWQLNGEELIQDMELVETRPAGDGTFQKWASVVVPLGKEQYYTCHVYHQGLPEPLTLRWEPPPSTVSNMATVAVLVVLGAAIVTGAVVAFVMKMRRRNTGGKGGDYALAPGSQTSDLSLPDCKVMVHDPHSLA
T1 sequence (b2m, looked up): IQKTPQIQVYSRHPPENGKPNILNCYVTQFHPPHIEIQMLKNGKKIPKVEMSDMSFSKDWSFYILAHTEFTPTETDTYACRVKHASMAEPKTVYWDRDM
The assay is described as follows: competitive inhibition of OVA peptide 1 binding to MHC-1 on DC2.4 cells, flow cytometry. How it is done: Murine dendritic cell line, DC2.4 cells, were detached from a dish, and suspended in 1.5 mL tubes at a concentration of 1.5×10⁵ cells per […] of PBS.

B1: C-TRP2-9 (cysteine added to the N-terminus of residues 180 to 188 of mTRP2) (peptide)
peptide: CSVYDFFVWL
notes: 10-mer; N-terminal Cys plus mTRP2 180-188; Free peptide in the assay
As to B1, the binding result is reported as “no binding (tested: 2.5 µg/mL)”.
